Source: US20220332804A1 (CSL INNOVATION, published 2022)

Columns and labels:
Experiment in all cases: SPR, antibody captured, C2 as analyte;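 note: biacore SPR at 37 °C, anti-C2 mAbs captured via goat anti-human IgG on CM5 chips, double-referenced sensorgrams fit to a 1:1 kinetic or steady-state model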
human C2 L701A = molecular target: T1, human C2 L701A (human, UniProt P06681 21-752)
T1 sequence: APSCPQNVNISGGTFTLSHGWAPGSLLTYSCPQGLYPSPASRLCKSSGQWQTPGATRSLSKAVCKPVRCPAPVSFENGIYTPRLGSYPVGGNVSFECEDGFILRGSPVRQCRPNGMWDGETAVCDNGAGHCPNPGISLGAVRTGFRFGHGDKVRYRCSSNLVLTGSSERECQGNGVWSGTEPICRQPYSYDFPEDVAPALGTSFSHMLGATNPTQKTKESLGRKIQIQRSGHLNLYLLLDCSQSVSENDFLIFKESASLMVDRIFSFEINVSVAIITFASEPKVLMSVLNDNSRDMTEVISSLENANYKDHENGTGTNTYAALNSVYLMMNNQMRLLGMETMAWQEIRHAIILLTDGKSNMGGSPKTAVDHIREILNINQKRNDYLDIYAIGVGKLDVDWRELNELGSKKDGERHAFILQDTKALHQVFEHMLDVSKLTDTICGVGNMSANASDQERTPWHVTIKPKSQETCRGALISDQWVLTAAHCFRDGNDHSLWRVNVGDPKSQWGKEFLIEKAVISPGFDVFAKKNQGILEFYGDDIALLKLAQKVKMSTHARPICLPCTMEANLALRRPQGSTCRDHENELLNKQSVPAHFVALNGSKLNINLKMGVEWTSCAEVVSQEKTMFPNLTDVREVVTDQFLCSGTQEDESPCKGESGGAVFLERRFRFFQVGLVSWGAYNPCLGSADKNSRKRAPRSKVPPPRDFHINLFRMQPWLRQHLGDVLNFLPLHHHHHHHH

human C2 S713A = molecular target: T2, human C2 S713A (human, UniProt P06681 21-752)
T2 sequence: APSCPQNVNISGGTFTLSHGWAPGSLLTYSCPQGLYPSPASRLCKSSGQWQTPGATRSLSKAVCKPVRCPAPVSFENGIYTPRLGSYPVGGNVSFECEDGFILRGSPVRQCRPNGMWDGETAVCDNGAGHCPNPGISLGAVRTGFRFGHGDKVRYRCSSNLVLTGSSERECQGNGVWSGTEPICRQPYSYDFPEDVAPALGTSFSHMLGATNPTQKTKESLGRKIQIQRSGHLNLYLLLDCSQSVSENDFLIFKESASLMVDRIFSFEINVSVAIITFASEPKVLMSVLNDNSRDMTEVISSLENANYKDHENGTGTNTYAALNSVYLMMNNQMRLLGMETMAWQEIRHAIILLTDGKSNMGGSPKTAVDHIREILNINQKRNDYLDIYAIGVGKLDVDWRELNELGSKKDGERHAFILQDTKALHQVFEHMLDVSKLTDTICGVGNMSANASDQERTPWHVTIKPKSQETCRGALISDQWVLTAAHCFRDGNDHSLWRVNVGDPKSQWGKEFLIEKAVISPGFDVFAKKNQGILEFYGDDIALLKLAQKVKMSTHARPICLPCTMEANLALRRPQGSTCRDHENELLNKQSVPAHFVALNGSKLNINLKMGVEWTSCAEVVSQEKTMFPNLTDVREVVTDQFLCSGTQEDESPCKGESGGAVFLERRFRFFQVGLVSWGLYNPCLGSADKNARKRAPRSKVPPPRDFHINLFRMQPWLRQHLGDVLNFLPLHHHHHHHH

human C2 K721A = molecular target: T3, human C2 K721A (human, UniProt P06681 21-752)
T3 sequence: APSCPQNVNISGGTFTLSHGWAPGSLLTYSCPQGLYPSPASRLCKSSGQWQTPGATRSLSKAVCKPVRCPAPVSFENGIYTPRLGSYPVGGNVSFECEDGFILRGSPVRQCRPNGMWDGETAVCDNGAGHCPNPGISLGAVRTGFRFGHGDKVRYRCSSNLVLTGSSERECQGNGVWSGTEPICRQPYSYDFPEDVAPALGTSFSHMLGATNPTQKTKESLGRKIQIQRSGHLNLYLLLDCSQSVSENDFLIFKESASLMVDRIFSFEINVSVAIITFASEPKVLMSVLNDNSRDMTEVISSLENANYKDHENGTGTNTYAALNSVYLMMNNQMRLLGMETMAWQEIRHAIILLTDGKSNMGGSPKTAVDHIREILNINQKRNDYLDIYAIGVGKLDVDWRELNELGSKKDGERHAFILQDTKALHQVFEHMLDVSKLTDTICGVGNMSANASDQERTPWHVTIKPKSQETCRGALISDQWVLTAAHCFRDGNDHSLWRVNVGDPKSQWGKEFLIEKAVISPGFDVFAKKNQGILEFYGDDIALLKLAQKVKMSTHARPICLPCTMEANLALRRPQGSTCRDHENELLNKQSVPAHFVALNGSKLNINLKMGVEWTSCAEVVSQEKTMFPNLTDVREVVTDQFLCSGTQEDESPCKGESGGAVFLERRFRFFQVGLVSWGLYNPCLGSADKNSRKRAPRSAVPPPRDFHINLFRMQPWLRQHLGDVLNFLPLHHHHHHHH

human C2 Y558A = molecular target: T4, human C2 Y558A (human, UniProt P06681 21-752)
T4 sequence: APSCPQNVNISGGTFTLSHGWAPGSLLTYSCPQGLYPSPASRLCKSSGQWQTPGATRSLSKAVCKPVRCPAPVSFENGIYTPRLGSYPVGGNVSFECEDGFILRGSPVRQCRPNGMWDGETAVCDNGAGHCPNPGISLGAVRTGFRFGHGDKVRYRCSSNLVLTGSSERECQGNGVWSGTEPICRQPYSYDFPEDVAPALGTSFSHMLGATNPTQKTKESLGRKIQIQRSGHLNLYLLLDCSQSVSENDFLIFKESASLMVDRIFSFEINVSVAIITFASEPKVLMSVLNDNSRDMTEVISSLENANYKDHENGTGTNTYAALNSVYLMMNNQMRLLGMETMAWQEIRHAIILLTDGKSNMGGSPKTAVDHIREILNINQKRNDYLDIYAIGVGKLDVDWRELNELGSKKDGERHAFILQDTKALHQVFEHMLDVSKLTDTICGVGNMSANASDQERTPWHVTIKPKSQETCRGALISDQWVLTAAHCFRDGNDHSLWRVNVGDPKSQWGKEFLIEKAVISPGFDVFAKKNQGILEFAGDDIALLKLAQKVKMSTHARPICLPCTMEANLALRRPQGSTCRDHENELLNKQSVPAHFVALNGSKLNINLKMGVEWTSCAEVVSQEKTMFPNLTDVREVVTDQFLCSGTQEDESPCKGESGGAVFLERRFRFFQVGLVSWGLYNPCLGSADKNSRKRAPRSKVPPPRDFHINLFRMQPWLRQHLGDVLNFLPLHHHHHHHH

B1: RF16-226 (antibody, human IgG4 S228P, lambda)
heavy: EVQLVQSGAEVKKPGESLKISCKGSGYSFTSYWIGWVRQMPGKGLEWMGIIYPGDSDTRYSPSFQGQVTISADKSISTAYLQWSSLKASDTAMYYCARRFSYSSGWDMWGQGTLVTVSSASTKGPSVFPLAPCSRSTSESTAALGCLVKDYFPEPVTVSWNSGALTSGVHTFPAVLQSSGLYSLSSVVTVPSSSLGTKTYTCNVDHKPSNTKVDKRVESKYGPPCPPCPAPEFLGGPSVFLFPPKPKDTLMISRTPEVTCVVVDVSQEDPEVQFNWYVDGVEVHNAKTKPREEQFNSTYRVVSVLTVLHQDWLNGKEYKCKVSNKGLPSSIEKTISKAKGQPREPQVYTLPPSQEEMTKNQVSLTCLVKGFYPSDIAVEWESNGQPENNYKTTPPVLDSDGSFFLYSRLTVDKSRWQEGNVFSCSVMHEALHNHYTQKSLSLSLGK
light: SYELTQPPSVSVSPGQTARITCSGDALTSKYVAWYQQKSGLAPLLVIYEDTRRPSGIPAKFSGSSSGSVATLTISGAHGDDEADYYCYSTDASGHQRVFGGGTKLTVLSQPKAAPSVTLFPPSSEELQANKATLVCLISDFYPGAVTVAWKADGSPVKAGVETTKPSKQSNNKYAASSYLSLTPEQWKSHRSYSCQVTHEGSTVEKTVAPTECS
notes: pH-dependent anti-C2 antibody from a phage display library; also called WT
Question: For B1, which Kd (human C2 L701A) is on record?
Answer: Its Kd is 165 nM.

Question: What about the Kd (human C2 S713A) of the same binder?
Answer: The Kd was 19 nM.

Question: What about the Kd (human C2 K721A) of the same binder?
Answer: The Kd was 99.9 nM.

Question: And the Kd (human C2 Y558A)?
Answer: Its Kd is 158 nM.
